In article PMC4418518 (2015):
Read-outs that look alike come from different tables or passages of the source.

Experiments:
Assay in all cases: co-sedimentation
actin = actin (Saccharomyces cerevisiae, UniProt P60010)
F-actin [1] = target: T1, F-actin (Saccharomyces cerevisiae, UniProt P60010)
F-actin [2] = target: T1, F-actin; remark: listed apart in the source

Kd (actin): 370 nM | Kd (F-actin [1]): 1480 nM | Kd (F-actin [2]): 1310 nM
B1: Vinculin tail (VT) 881-1066 (protein)
chain: KDEEFPEQKAGEAINQPMMMAARQLHDEARKWSSKPVTVINEAAEAGVDIDEEDDADVEFSLPSDIEDDYEPELLLMPTNQPVNQPILAAAQSLHREATKWSSKGNDIIAAAKRMALLMAEMSRLVRGGSGNKRALIQCAKDIAKASDEVTRLAKEVAKQCTDKRIRTNLLQVCERIPTISTQLKI
